Assay results as given in US11779606B2, “Peptides and combination of peptides of non-canonical origin for use in immunotherapy against different types of cancers” (Immatics Biotechnologies GmbH, priority 2018, dated 2023).

These substances were tested on CD8+ T cells (assay: In vitro T-cell priming assay (immunogenicity) with artificial APCs loaded with peptide/MHC complexes and anti-CD28). Details: CD8+ T cells of healthy HLA-A*02 donors, multimer staining, Table 13a.
Type: cell-based, human
Text: In order to obtain information regarding the immunogenicity of the TUMAPs of the present invention, the inventors performed investigations using an in vitro T-cell priming assay based on repeated stimulations of CD8+ T cells with artificial antigen presenting cells (aAPCs) loaded with peptide/MHC complexes and anti-CD28 antibody.
In order to perform in vitro stimulations by artificial antigen presenting cells loaded with peptide-MHC complex (pMHC) and anti-CD28 antibody, the inventors first isolated CD8+ T cells from fresh HLA-A*02 leukapheresis products via positive selection using CD8 microbeads (Miltenyi Biotec, Bergisch-Gladbach, Germany) of healthy donors obtained from the University clinics Mannheim, Germany, after informed consent.
PBMCs and isolated CD8+ lymphocytes were incubated in T-cell medium (TCM) until use consisting of RPMI-Glutamax (Invitrogen, Karlsruhe, Germany) supplemented with 10% heat inactivated human AB serum (PAN-Biotech, Aidenbach, Germany), 100 U/ml Penicillin/100 μg/ml Streptomycin (Cambrex, Cologne, Germany), 1 mM sodium pyruvate (CC Pro, Oberdorla, Germany), 20 μg/ml Gentamycin (Cambrex). 2.5 ng/ml IL-7 (PromoCell, Heidelberg, Germany) and 10 U/ml IL-2 (Novartis Pharma, Nümberg, Germany) were also added to the TCM at this step.
Generation of pMHC/anti-CD28 coated beads, T-cell stimulations and readout was performed in a highly defined in vitro system using four different pMHC molecules per stimulation condition and 8 different pMHC molecules per readout condition.
The purified co-stimulatory mouse IgG2a anti human CD28 Ab 9.3 (Jung et al., 1987) was chemically biotinylated using Sulfo-N-hydroxysuccinimidobiotin as recommended by the manufacturer (Perbio, Bonn, Germany). Beads used were 5.6 μm diameter streptavidin coated polystyrene particles (Bangs Laboratories, Illinois, USA).
800.000 beads/200 μl were coated in 96-well plates in the presence of 4×12.5 ng different biotin-pMHC, washed and 600 ng biotin anti-CD28 were added subsequently in a volume of 200 μl. Stimulations were initiated in 96-well plates by co-incubating […] CD8+ T cells with 2×10^5 washed coated beads in 200 μl TCM supplemented with 5 ng/ml IL-12 (PromoCell) for 3 days at 37° C. Half of the medium was then exchanged by fresh TCM supplemented with 80 U/ml IL-2 and incubating was continued for 4 days at 37° C. This stimulation cycle was performed for a total of three times. For the pMHC multimer readout using 8 different pMHC molecules per condition, a two-dimensional combinatorial coding approach was used as previously described (Andersen et al., 2012) with minor modifications encompassing coupling to 5 different fluorochromes. Finally, multimeric analyses were performed by staining the cells with Live/dead near IR dye (Invitrogen, Karlsruhe, Germany), CD8-FITC antibody clone SK1 (BD, Heidelberg, Germany) and fluorescent pMHC multimers. For analysis, a BD LSRII SORP cytometer equipped with appropriate lasers and filters was used. Peptide specific cells were calculated as percentage of total CD8+ cells. Evaluation of multimeric analysis was done using the FlowJo software (Tree Star, Oreg., USA). In vitro priming of specific multimer+CD8+ lymphocytes was detected by comparing to negative control stimulations.

Substance | Wells positive [%]
103 (SLVSYLDKV; listed as Homo sapiens) [compound 103] | + (<20% = +)
102 (GLDPTQFRV; listed as Homo sapiens) [compound 102] | ++++ (>=70% = ++++)

Same assay, conditions: CD8+ T cells of healthy HLA-A*02 donors, multimer staining, Table 13b

Substance | Wells positive [%]
31 (VVLPIVITL; listed as Homo sapiens) [compound 31] | ++ (20-49% = ++)

Each substance was assayed against HLA-A*02:01 (Homo sapiens, UniProt P04439, D140Y/D185E/D98H/E176V/E277Q/G131W/G231S/I119V/I121R/I166T/I218V/L300P/L318F/N151K/N90K/P208A/P217A/Q86G/Q94H/R138H/R169H/T345S) (assay: MHC binding assay (UV-ligand exchange, β2m ELISA)). Details: MHC class I binding score; peptide exchange yield, binding to HLA-A*02:01, UV-ligand exchange with β2m ELISA.
Text: Candidate peptides for T cell based therapies according to the present invention were further tested for their MHC binding capacity (affinity).
The individual peptide-MHC complexes were produced by UV-ligand exchange, where a UV-sensitive peptide is cleaved upon UV-irradiation and exchanged with the peptide of interest as analyzed. Only peptide candidates that can effectively bind and stabilize the peptide-receptive MHC molecules prevent dissociation of the MHC complexes. To determine the yield of the exchange reaction, an ELISA was performed based on the detection of the light chain (β2m) of stabilized MHC complexes. The assay was performed as generally described in Rodenko et al. (Rodenko et al., 2006).
96 well MAXISorp plates (NUNC) were coated over night with 2 ug/ml streptavidin in PBS at room temperature, washed 4× and blocked for 1h at 37° C. in 2% BSA containing blocking buffer. Refolded HLA-A*02:01/MLA-001 monomers served as standards, covering the range of 15-500 ng/ml. Peptide-MHC monomers of the UV-exchange reaction were diluted 100 fold in blocking buffer. Samples were incubated for 1 h at 37° C., washed four times, incubated with 2 ug/ml HRP conjugated anti-β2m for 1h at 37° C., washed again and detected with TMB solution that is stopped with […]. Absorption was measured at 450 nm. Candidate peptides that show a high exchange yield (preferably higher than 50%, most preferred higher than 75%) are generally preferred for a generation and production of antibodies or fragments thereof, and/or T cell receptors or fragments thereof, as they show sufficient avidity to the MHC molecules and prevent dissociation of the MHC complexes.

Substance | Peptide exchange
31 (VVLPIVITL; listed as Homo sapiens) [compound 31] | ++++ (≥75% = ++++)
22 (SLYDVPVGA; listed as Homo sapiens) [compound 22] | ++++ (≥75% = ++++)
28 (SQLEKPETA; listed as Homo sapiens) [compound 28] | +++ (≥50 = +++)
8 (ILQSLVPAA; listed as Homo sapiens) [compound 8] | ++++ (≥75% = ++++)
35 (VLLNSNYPV; listed as Homo sapiens) [compound 35] | ++++ (≥75% = ++++)
52 (LAFVSHVLI; listed as Homo sapiens) [compound 52] | ++ (≥20% = ++)
54 (GLSPDQVFL; listed as Homo sapiens) [compound 54] | ++++ (≥75% = ++++)
56 (IITNLIVNI; listed as Homo sapiens) [compound 56] | +++ (≥50 = +++)
43 (AIWSTILIA; listed as Homo sapiens) [compound 43] | ++ (≥20% = ++)
53 (TISISLSSV; listed as Homo sapiens) [compound 53] | ++++ (≥75% = ++++)
9 (FLQEGDLISV; listed as Homo sapiens) [compound 9] | ++++ (≥75% = ++++)
16 (ALLDAEQSPVAL; listed as Homo sapiens) [compound 16] | ++++ (≥75% = ++++)
11 (ALLPHAPEAV; listed as Homo sapiens) [compound 11] | +++ (≥50 = +++)
44 (WLIPRQLAAA; listed as Homo sapiens) [compound 44] | ++++ (≥75% = ++++)
57 (YVLMTSLLL; listed as Homo sapiens) [compound 57] | ++++ (≥75% = ++++)
21 (FVFISPSFL; listed as Homo sapiens) [compound 21] | +++ (≥50 = +++)
17 (VLWDLRPSSLI; listed as Homo sapiens) [compound 17] | ++++ (≥75% = ++++)
55 (MVQQEKLFV; listed as Homo sapiens) [compound 55] | +++ (≥50 = +++)

Substance | Peptide exchange
32 (VLSVSAVLGA; listed as Homo sapiens) [compound 32] | +++ (≥50 = +++)
5 (LVWEVVESV; listed as Homo sapiens) [compound 5] | ++++ (≥75% = ++++)
41 (LMASEGIWESSL; listed as Homo sapiens) [compound 41] | +++ (≥50 = +++)
10 (SLLDKLSGI; listed as Homo sapiens) [compound 10] | ++++ (≥75% = ++++)
39 (YIYEDEVRL; listed as Homo sapiens) [compound 39] | ++++ (≥75% = ++++)
23 (GLEVLDALL; listed as Homo sapiens) [compound 23] | ++ (≥20% = ++)
25 (ISVLNLSAI; listed as Homo sapiens) [compound 25] | ++ (≥20% = ++)
15 (NLVMPLLHI; listed as Homo sapiens) [compound 15] | ++ (≥20% = ++)
24 (TLTSLNILL; listed as Homo sapiens) [compound 24] | ++++ (≥75% = ++++)
20 (VLISLPGKV; listed as Homo sapiens) [compound 20] | ++ (≥20% = ++)
30 (LLRLTLLPL; listed as Homo sapiens) [compound 30] | ++ (≥20% = ++)
12 (HLDSMNVSI; listed as Homo sapiens) [compound 12] | ++++ (≥75% = ++++)
27 (IAAGVPNTDA; listed as Homo sapiens) [compound 27] | ++ (≥20% = ++)
14 (LLIEVSEEL; listed as Homo sapiens) [compound 14] | ++++ (≥75% = ++++)
42 (WITPVIPAL; listed as Homo sapiens) [compound 42] | ++++ (≥75% = ++++)
45 (ALYHQSPLL; listed as Homo sapiens) [compound 45] | ++++ (≥75% = ++++)
34 (LLNVEPAGA; listed as Homo sapiens) [compound 34] | ++++ (≥75% = ++++)

Further lines, results first:

Peptide exchange | Substance
+ (≥10% = +) | 64 (LLLALRLSL; listed as Homo sapiens) [compound 64]
++++ (≥75% = ++++) | 59 (LAASTTFLGV; listed as Homo sapiens) [compound 59]
++++ (≥75% = ++++) | 62 (SLLGKPGLTI; listed as Homo sapiens) [compound 62]
++++ (≥75% = ++++) | 71 (WLMPVMPAL; listed as Homo sapiens) [compound 71]
++ (≥20% = ++) | 67 (ALKELMGPA; listed as Homo sapiens) [compound 67]
++++ (≥75% = ++++) | 66 (ILNELLNSI; listed as Homo sapiens) [compound 66]
++++ (≥75% = ++++) | 70 (LLLQIEPAA; listed as Homo sapiens) [compound 70]
++++ (≥75% = ++++) | 99 (ALMDGSESRFFV; listed as Homo sapiens) [compound 99]
++++ (≥75% = ++++) | 100 (SLGPPPVGV; listed as Homo sapiens) [compound 100]
++ (≥20% = ++) | 58 (MIISHRALEL; listed as Homo sapiens) [compound 58]
++++ (≥75% = ++++) | 97 (GLIDDKGTIKL; listed as Homo sapiens) [compound 97]
++++ (≥75% = ++++) | 98 (SLMEVTHDL; listed as Homo sapiens) [compound 98]
++ (≥20% = ++) | 63 (LSFKRSLSI; listed as Homo sapiens) [compound 63]
++ (≥20% = ++) | 73 (STTIINLIL; listed as Homo sapiens) [compound 73]
++++ (≥75% = ++++) | 60 (LLLATLENL; listed as Homo sapiens) [compound 60]
++++ (≥75% = ++++) | 69 (LLCPVVLQL; listed as Homo sapiens) [compound 69]
++ (≥20% = ++) | 61 (VLPWQPLLL; listed as Homo sapiens) [compound 61]
